The text below walks through data of patent publication US20260008817A1, “CYCLIC PEPTIDE OR SALT THEREOF, AND USES THEREOF” (FUJIFILM Corporation, priority 2023, published 2026).

Data set [1] concerns the target T1, Recombinant Human FGFR1 alpha (IIIc) Fc Chimera Protein (Homo sapiens, UniProt P11362).
T1 construct: purchased R&D systems 658-FR-050
The data set is described as follows: SPR binding affinity of chemically synthesized cyclic peptide to immobilized FGFR. The note with it: SPR binding amount at 10 nmol/L cyclic peptide, 25° C.; chemically synthesized product. How it is done:
The binding affinity of the cyclic peptide to FGFR was evaluated using a surface plasmon resonance (SPR) method.
The binding affinity of the chemically synthesized cyclic peptide to FGFR was evaluated by the following procedure.
A CM5 sensor chip (Cytiva, 29149603) was set in Biacore-T200 (manufactured by Cytiva) which is a surface plasmon resonance device, and an HBS-EP buffer (Cytiva, BR100826) was added as a running buffer at a flow rate of 10 μL/min to equilibrate the flow channel. Next, 70 μL of a mixed aqueous solution of 0.2 mol/L 1-(3-dimethylaminopropyl)-3-ethylcarbodiimide (EDC) and 0.05 mol/L N-hydroxysuccinimide (NHS) was added to activate the sensor chip. Then, Recombinant Human FGFR1 alpha (IIIc) Fc Chimera Protein CF (R&D systems, 658-FR-050) prepared at 50 nmol/L in an Acetate 4.5 buffer (Cytiva, BR100350) was added thereto to perform immobilization at about 5000 RU. Thereafter, the blocking treatment was performed with an ethanolamine solution. In addition, in another flow channel of the same sensor chip, blocking treatment was performed immediately after activation without immobilizing FGFR.
A cyclic peptide diluted to 10 nmol/L using HBS-EP was added to each flow channel of the FGFR-immobilized sensor chip produced above at 25° C. for 10 minutes, then HBS-EP was allowed to flow as a running buffer for 30 minutes, and the binding of the cyclic peptide to FGFR was measured. Thereafter, a regeneration treatment of removing the bound cyclic peptide was performed by repeating the flow of a regeneration liquid in which sodium chloride powder was dissolved in Glysine 1.5 (Cytiva, BR100354) to a final concentration of 0.15 mol/L for 1 minute in each flow channel twice. The binding amount of the cyclic peptide was evaluated from the difference between the measured value of Biacore-T200 in the flow channel in which FGFR was immobilized and the measured value of Biacore-T200 in the flow channel in which FGFR was not immobilised, in a case where a 10 nmol/L cyclic peptide was allowed to flow.
The binding amount of the cyclic peptide evaluated above was normalized to the binding amount of the cyclic peptide molecules per one molecule of FGFR using the molecular weights of the cyclic peptide and FGFR, and the binding affinity to FGFR was evaluated according to the following evaluation criteria. The evaluation result preferably satisfies the evaluation criteria A, B, or C.
• A: The binding amount is 0.7 molecules of the cyclic peptide/one molecule of FGFR or more. • B: The binding amount is 0.5 molecules of the cyclic peptide/one molecule of FGFR or more and less than 0.7 molecules of cyclic peptide/one molecule of FGFR. • C: The binding amount is 0.1 molecules of cyclic peptide/one molecule of FGFR or more and less than 0.5 molecules of cyclic peptide/one molecule of FGFR. • D: The binding amount is less than 0.1 molecules of the cyclic peptide/one molecule of FGFR.

A short description of data set [2]: Reductive stability of cyclic peptide (DTT treatment, LC). In kind it is physicochemical. The note with it: residual rate after DTT treatment, room temperature, 1 hour. How it is done:
The molecular stability of the cyclic peptide was evaluated by analyzing an aqueous solution of the cyclic peptide treated with a reducing agent by liquid chromatography (LC).
The reducing agent treatment was performed under the following conditions based on the concentration of glutathione contained in the cells. 25 μL of a 0.2 mg/mL cyclic peptide aqueous solution was prepared, 58.8 μL of a 12.6 mmol/L DTT aqueous solution was added to the aqueous solution, and the mixture was incubated at room temperature for 1 hour to obtain an aqueous solution of the cyclic peptide treated with a reducing agent. The DTT aqueous solution was used by diluting a 1 mol/L (+−)-dithiothreitol (DTT) solution (FUJIFILM Wako Pure Chemical Corporation, 044-33871) with water. The total area of all the peaks in LC/MS of the cyclic peptide before the reducing agent treatment was set to 100%, and the proportion of the total area of all the peaks in LC/MS of the aqueous solution of the cyclic peptide treated with the reducing agent was determined to calculate the residual rate of the cyclic peptide, and the molecular stability was evaluated according to the following evaluation criteria. The evaluation result preferably satisfies the evaluation criteria A, B, or C.
• A: The residual rate of cyclic peptide is 90% or more. • B: The residual rate of the cyclic peptide is 70% or more and less than 90% • C: The residual rate of the cyclic peptide is 50% or more and less than 70% • D: The residual rate of the cyclic peptide is less than 50%
The LC used for the evaluation of molecular stability was set to the following conditions. • LC device: Prominence series (pump, column oven, autosampler, detector) (manufactured by Shimadzu Corporation) • Detector: photodiode array detector (SPD-M20A), measurement wavelength of 280 nm • Column: TSKgel ODS-100V, inner diameter of 4.6 mm×length of 150 mm, particle diameter of 5 μm (manufactured by Tosoh Corporation) • Eluent A: solution containing 0.1% trifluoroacetic acid as solute, and solvent is 100% water • Eluent B: solution containing 0.1% trifluoroacetic acid as solute, and solvent is 100% acetonitrile • Flow rate: 1.0 mL/min • Injection amount: 25 μL • Gradient: 20% to 50%: Eluent B (0 to 15 minutes), 100%: Eluent B (15 minutes) • Column temperature: 40° C.

Data set [3] addresses Recombinant Human FGFR1 alpha (IIIc) Fc Chimera Protein, CF (R&D systems, 658-FR-050) (human) (UniProt P11362). The data set is described as follows: SPR grade, peptide 10 nmol/L over FGFR1-Fc. The note with it: scale: moleculesofcyclicpeptide/onemoleculeoffgfr.

Positions of bridges follow the written chain, without caps; N, C: chain ends. Non-standard residues stand in square brackets, D forms with d. No end group written: not given here. COCH2 = acetyl group that carries the bridge; NMeL = CN[C@@H](CC(C)C)C(=O)O; hLeu = CC(C)CC[C@H](N)C(=O)O; hCys = N[C@@H](CCS)C(=O)O; Orn = NCCC[C@H](N)C(=O)O; Dab = NCC[C@H](N)C(=O)O; Dap = NC[C@H](N)C(=O)O

T1 sequence (P11362 with tags, fused parts or gaps limits assumed): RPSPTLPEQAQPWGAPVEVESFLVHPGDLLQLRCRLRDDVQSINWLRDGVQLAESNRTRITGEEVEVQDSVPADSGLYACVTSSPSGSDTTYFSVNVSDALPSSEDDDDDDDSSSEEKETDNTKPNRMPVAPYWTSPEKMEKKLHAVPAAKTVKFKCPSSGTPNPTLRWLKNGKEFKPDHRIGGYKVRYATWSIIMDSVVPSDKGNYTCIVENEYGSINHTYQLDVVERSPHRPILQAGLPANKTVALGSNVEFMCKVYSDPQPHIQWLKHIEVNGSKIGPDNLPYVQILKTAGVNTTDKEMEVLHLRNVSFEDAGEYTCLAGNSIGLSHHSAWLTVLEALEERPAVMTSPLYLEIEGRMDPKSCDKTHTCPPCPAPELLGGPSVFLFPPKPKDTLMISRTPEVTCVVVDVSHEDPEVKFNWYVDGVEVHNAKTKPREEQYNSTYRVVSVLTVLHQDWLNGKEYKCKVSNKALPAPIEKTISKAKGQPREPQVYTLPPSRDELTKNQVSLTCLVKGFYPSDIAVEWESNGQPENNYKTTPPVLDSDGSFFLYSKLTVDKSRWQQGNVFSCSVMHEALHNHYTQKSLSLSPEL
Sequence of Recombinant Human FGFR1 alpha (IIIc) Fc Chimera Protein, CF (R&D systems, 658-FR-050) (human) (P11362 22-376, change not shown): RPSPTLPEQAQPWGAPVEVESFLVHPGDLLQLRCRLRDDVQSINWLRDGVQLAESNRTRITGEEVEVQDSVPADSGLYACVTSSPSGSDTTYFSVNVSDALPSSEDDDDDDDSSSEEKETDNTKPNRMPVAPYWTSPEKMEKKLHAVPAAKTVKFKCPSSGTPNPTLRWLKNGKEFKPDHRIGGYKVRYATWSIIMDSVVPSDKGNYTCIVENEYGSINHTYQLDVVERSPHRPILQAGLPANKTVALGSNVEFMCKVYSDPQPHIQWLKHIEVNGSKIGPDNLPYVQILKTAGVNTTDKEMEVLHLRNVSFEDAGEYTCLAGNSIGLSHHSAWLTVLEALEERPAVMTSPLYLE

As for “327 (A[hCys]VWTFDRHAQEISQALHK(COCH2)VKKK; thioether 2-19) [compound 327]”, the “Evaluation result of binding affinity to FGFR” value (from here on “Evaluation result … to FGFR”) in data set [1] was “A (The binding amount is 0.7 molecules of the cyclic peptide/one molecule of FGFR or more.)”. Moreover, the “Evaluation result of reductive stability” value in data set [2] is given as “A (The residual rate of cyclic peptide is 90% or more.)”.

Take “328 (A[hCys]VWTFDRHAQEISQALH[Orn](COCH2)VKKK; thioether 2-19) [compound 328]”: in data set [1], the “Evaluation result … to FGFR” value is reported as “A (The binding amount is 0.7 molecules of the cyclic peptide/one molecule of FGFR or more.)”. In data set [2], the “Evaluation result of reductive stability” value was “A (The residual rate of cyclic peptide is 90% or more.)”.

Take “329 (A[hCys]VWTFDRHAQEISQALH[Dab](COCH2)VKKK; thioether 2-19) [compound 329]”: the “Evaluation result … to FGFR” value in data set [1] was “B (The binding amount is 0.5 molecules of the cyclic peptide/one molecule of FGFR or more and less than 0.7 molecules of cyclic peptide/one molecule of FGFR.)”. Further, the “Evaluation result of reductive stability” value in data set [2] was “A (The residual rate of cyclic peptide is 90% or more.)”.

Consider “330 (A[hCys]VWTFDRHAQEISQALH[Dap](COCH2)VKKK; thioether 2-19) [compound 330]”, for which, in data set [1], the “Evaluation result … to FGFR” value is reported as “A (The binding amount is 0.7 molecules of the cyclic peptide/one molecule of FGFR or more.)”. In addition, in data set [2], the “Evaluation result of reductive stability” value is “A (The residual rate of cyclic peptide is 90% or more.)”.

Regarding “331 (AK(COCH2)VWTFDRHAQEISQALH[hCys]VKKK; thioether 2-19) [compound 331]”, the “Evaluation result … to FGFR” value in data set [1] was “B (The binding amount is 0.5 molecules of the cyclic peptide/one molecule of FGFR or more and less than 0.7 molecules of cyclic peptide/one molecule of FGFR.)”. Further, in data set [2], the “Evaluation result of reductive stability” value is recorded as “A (The residual rate of cyclic peptide is 90% or more.)”.

For the molecule “332 (AXVWTFDRHAQEISQALHXVKKK; not fully specified; Description of Artificial Sequence: Cyclic peptide) [compound 332]”, the “Evaluation result … to FGFR” value in data set [1] is recorded as “A (The binding amount is 0.7 molecules of the cyclic peptide/one molecule of FGFR or more.)”. In addition, in data set [2], the “Evaluation result of reductive stability” value is recorded as “A (The residual rate of cyclic peptide is 90% or more.)”.

For the molecule “333 (AXVWTFDRHAQEISQALHXVKKK; not fully specified; Description of Artificial Sequence: Cyclic peptide) [compound 333]”, in data set [1], the “Evaluation result … to FGFR” value is on record as “A (The binding amount is 0.7 molecules of the cyclic peptide/one molecule of FGFR or more.)”. In addition, the “Evaluation result of reductive stability” value in data set [2] is “A (The residual rate of cyclic peptide is 90% or more.)”.

As to “334 (AXVWTFDRHAQEISQALHXVKKK; Description of Artificial Sequence: Cyclic peptide) [compound 334]”, the “Evaluation result … to FGFR” value in data set [1] is recorded as “A (The binding amount is 0.7 molecules of the cyclic peptide/one molecule of FGFR or more.)”. Further, the “Evaluation result of reductive stability” value in data set [2] is “A (The residual rate of cyclic peptide is 90% or more.)”.

For the molecule “336 (ACVWTFDRHAQEISQALHCVKKK; disulfide 2-19 (inferred)) [compound 336]”, the “Evaluation result … to FGFR” value in data set [1] was “D (The binding amount is less than 0.1 molecules of the cyclic peptide/one molecule of FGFR.)”. Further, the “Evaluation result of reductive stability” value in data set [2] is recorded as “D (The residual rate of the cyclic peptide is less than 50%)”.

“337 (F[Orn](COCH2)VYTFDAHAHSLDAALN[hCys]IKKK; thioether 2-19) [compound 337]”: the “Evaluation result … to FGFR” value in data set [1] is “C (The binding amount is 0.1 molecules of cyclic peptide/one molecule of FGFR or more and less than 0.5 molecules of cyclic peptide/one molecule of FGFR.)”. The “Evaluation result of reductive stability” value in data set [2] is “B (The residual rate of the cyclic peptide is 70% or more and less than 90%)”.

On to “338 (FXVYTFDAHAHSLDAALNXIKKK; Description of Artificial Sequence: Cyclic peptide) [compound 338]”, for which the “Evaluation result … to FGFR” value in data set [1] was “C (The binding amount is 0.1 molecules of cyclic peptide/one molecule of FGFR or more and less than 0.5 molecules of cyclic peptide/one molecule of FGFR.)”. Besides, in data set [2], the “Evaluation result of reductive stability” value is given as “A (The residual rate of cyclic peptide is 90% or more.)”.

For “339 (F[Orn](COCH2)VYTFDAHAHS[NMeL]DAALN[hCys]IKKK; thioether 2-19) [compound 339]”, the “Evaluation result … to FGFR” value in data set [1] is “C (The binding amount is 0.1 molecules of cyclic peptide/one molecule of FGFR or more and less than 0.5 molecules of cyclic peptide/one molecule of FGFR.)”. For the same molecule, the “Evaluation result of reductive stability” value in data set [2] was “B (The residual rate of the cyclic peptide is 70% or more and less than 90%)”.

For “340 (F[Orn](COCH2)VYTFDAHAHS[hLeu]DAALN[hCys]IKKK; thioether 2-19) [compound 340]”, the “Evaluation result … to FGFR” value in data set [1] was “B (The binding amount is 0.5 molecules of the cyclic peptide/one molecule of FGFR or more and less than 0.7 molecules of cyclic peptide/one molecule of FGFR.)”. In data set [2], the “Evaluation result of reductive stability” value was “B (The residual rate of the cyclic peptide is 70% or more and less than 90%)”.

As to “341 ([Orn](COCH2)VYTFDAHAHSLDAALN[hCys]IKKK; thioether 1-18) [compound 341]”, the “Evaluation result … to FGFR” value in data set [1] is “C (The binding amount is 0.1 molecules of cyclic peptide/one molecule of FGFR or more and less than 0.5 molecules of cyclic peptide/one molecule of FGFR.)”. For the same molecule, the “Evaluation result of reductive stability” value in data set [2] is “B (The residual rate of the cyclic peptide is 70% or more and less than 90%)”.

Take “342 (F[Orn](COCH2)VYTFDAHAHSLDAALN[hCys]KKK; thioether 2-19) [compound 342]”: the “Evaluation result … to FGFR” value in data set [1] is “C (The binding amount is 0.1 molecules of cyclic peptide/one molecule of FGFR or more and less than 0.5 molecules of cyclic peptide/one molecule of FGFR.)”. In addition, the “Evaluation result of reductive stability” value in data set [2] is “B (The residual rate of the cyclic peptide is 70% or more and less than 90%)”.

Take ACVWTFDRHAQEISQALHCVKKK (disulfide 2-19) [cyclic peptide SEQ ID NO: 336]: the binding amount (SPR, molecules of cyclic peptide bound per one molecule of FGFR at 10 nmol/L peptide) in data set [3] is less than 0.1.
